# From patent publication US20120282177A1 (published 2012)
# Molecular target: T1, Tyrosine-protein kinase transmembrane receptor ROR1 (Long Isoform), human, on the cell surface (human, UniProt Q01973 30-937)
# T1 construct: Endogenous ROR1 on the human cell lines A549, HT29, H69 and HEK293 and on CLL cells from a patient; also called cell-surface human ROR1; full-length ROR1
# Experiment: flow cytometry on A549 cells (FIG. 5a)
# Description: (§1) The specificity of antibodies against the ROR1 selected in Example 6 was tested by flow cytometry. To test the ability of the antibodies to bind to the cell surface ROR1 protein, the antibodies were incubated with the ROR1-expressing cells, A549, from human lung adenocarinoma. Cells were washed in FACS buffer (DPBS, 2% FBS), centrifuged and resuspended in 100 μl of the diluted primary ROR1 antibody (also diluted in FACS buffer). The antibody-A549 complex was incubated on ice for 60 min and then washed twice with FACS buffer as described above. The cell-antibody pellet was resuspended in 100 μl of the diluted secondary antibody (also diluted in FACS buffer) and incubated on ice for 60 min on ice. The pellet was washed as before and resuspended in 200 μl FACS buffer. The samples were loaded onto the BD FACScanto II flow sytometer and the data analyzed using the BD FACSdiva software. The binding of ROR1_A3, ROR1_A1, ROR1_A8 and ROR1_A14 to ROR1 expressed on A549, H69 (human small cell lung carcinoma) and HT29 (colon carcinoma) cells were also analysed using flow cytometry.
# T1 sequence (Q01973 30-937 limits assumed): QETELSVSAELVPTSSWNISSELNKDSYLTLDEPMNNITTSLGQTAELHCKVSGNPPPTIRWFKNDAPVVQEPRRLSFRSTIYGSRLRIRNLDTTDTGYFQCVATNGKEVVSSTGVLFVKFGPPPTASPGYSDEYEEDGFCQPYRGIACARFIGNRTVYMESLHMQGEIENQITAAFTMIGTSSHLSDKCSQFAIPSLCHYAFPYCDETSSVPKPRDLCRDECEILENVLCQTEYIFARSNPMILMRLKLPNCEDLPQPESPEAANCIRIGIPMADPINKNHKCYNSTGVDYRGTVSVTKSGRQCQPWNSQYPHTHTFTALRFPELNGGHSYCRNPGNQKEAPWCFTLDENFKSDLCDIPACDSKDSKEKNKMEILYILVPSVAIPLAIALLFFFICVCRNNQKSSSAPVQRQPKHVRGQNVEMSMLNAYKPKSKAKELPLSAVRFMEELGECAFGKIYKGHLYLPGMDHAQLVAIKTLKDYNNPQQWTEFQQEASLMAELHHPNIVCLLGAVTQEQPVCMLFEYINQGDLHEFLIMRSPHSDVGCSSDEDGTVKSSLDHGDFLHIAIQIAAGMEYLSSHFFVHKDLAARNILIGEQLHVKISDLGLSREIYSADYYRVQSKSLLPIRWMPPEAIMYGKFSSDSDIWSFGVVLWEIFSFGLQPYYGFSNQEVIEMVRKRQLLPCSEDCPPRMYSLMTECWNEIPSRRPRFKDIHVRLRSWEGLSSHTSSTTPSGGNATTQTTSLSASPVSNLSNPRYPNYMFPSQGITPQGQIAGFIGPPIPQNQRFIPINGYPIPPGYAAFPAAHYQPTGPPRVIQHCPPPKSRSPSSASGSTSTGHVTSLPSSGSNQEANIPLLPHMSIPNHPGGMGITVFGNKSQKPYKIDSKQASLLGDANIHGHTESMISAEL
row,binding result,Binder
1,binds,"ROR1_A6 (Fab, V domains shown, The entries are called 'variable region' but as printed hold leader, V domain, constant domain and tag) VH: EVMLVESGGGLVKPGGSLKLSCAASGFTFSPYAMSWVRQTPEKRLEWVAAINSNRGTTYYPDTVKGRFTISRDNAKNTLYLQMSSLRSEDTAFYYCVRHRYNNYDYAMDYWGQGTSVTVSS VL: DIVMSQSPSSMYASLGERVTITCKASQDINSYLSWFQQKPGKSPKTLTYRANRLVEGVPSRFSGSGSGQDYSLTISSLEYEDMGIYYCLQYDEFPYTFGGGTKLEIKR"
2,binds,"ROR1_A2 (Fab, V domains shown, The entries are called 'variable region' but as printed hold leader, V domain, constant domain and tag) VH: EVQLLETGGGLVKPGGSLKLSCAASGFTFSTYAMSWVRQTPEKRLEWVAGINSNRGTTYYPDTVKGRFTISRDNAKNTLSLQMTSLRSEDTALYYCVRHRYTNYDYAMDYWGQGTSVTVSS VL: DIKMTQSPSSMYASLGERVTITCKASQDINSYLSWFQQKPGKSPKTLIYRANRLVDGVPSRFSGSGSGQDYSLTISSLEYEDMGIYYCLQYDEFPYTFGGGTKLEIKR"
3,binds,"ROR1_A7 (Fab, V domains shown, The entries are called 'variable region' but as printed hold leader, V domain, constant domain and tag) VH: EVMLVESGGGLVKPGGSLKISCAASGFSFSSYAMSWVRQTPEKSLEWVAAININRGTPYYPDTVKGRFTISRDNAKNTLYLQMSSLRSEDTALYYCVRHRNSNNDYAMDYWGQGTSVTVSS VL: DIVMTQSPSSMYTSLGERVTITCKASQDINSYLSWFQQKPGKSPKTLIYRANRLIDGVPSRFSGSGSGQDYSLTISSLEYEDMGIYYCLQYDEFPFTFGSGTKLEIKR"
4,binds,"ROR1_A4 (Fab, V domains shown, The entries are called 'variable region' but as printed hold leader, V domain, constant domain and tag) VH: EVKLVESGGGLVKPGGSLKLSCAASGFTFSNYGMSWVRQTPERRLEWVAAMNNNGASTYYPDTVKGRFTISRDNAKNTLYLQMSSLRSEDTALYFCVRHNNYVDYAMDYWGQGTSVTVSS VL: DILLTQSPSSMYTSLGERVTITCKASQDINSYLSWFQQKPGKSPKTLIYRANKLVDGVPSRFSGSGSGQDYSLTISSLESEDMGIYYCLQYDEFPYTFGGGTKLEIKR"
5,binds,"ROR1_A9 (Fab, V domains shown, The entries are called 'variable region' but as printed hold leader, V domain, constant domain and tag) VH: EVQLVETGGDLVKPGGSLKLSCVASGFTFSSNAMSWVRQTPEKRLEWVAAINSKGGGTYYPDTVRGRFTISRDNAKNTLYLQVTSLRSEDTALYYCVSHGDNKYFYAMDYWGQGTSVTVSS VL: NIVMTQSPSSMYASLGERVTITCKASQDINSYLSWFQQKPGKSPKTLIYRANRLVDGVPSRFSGSGSGQDYSLTISSLEYEDMGIYYCLQYDEFPYTFGGGTKLEIKR"
6,binds,"ROR1_A5 (Fab, V domains shown, The entries are called 'variable region' but as printed hold leader, V domain, constant domain and tag) VH: EVKLVESGGGLVKPGGSLKLSCAASGFTFSNYDMSWVRQSPEKRLEWVAAINRKGHSTYYPDTVQGRFTISRDNAKNTLYLQMSSLRSEDTALYYCVRLDDNYYFFDYWGQGTTLTVSS VL: DIKMTQSPSSMYASLGERVTITCKASQDINSYLSWFQQKPGKSPKTLIYRAKRLIDGVPSRFSGSGSGQDYSLTISSLEYEDMGIYYCLQYDEFPYTFGGGTKLEIKR"
7,binds,"ROR1_A3 (Fab, V domains shown, The entries are called 'variable region' but as printed hold leader, V domain, constant domain and tag) VH: DVMLVESGGGLVKPGGSLKLSCAASGFTFSSYAMSWVRQTPEKRLEWVAAININRGTTYYSDTVKGRFTISRDNAKNTLYLQLSSLRSEDTALYYCSRHRYSDYDYAMDYWGQGTSVTVSS VL: DIQLTQSPSSMYASLGERVTIACKASQDINSYLSWFQQKPGKSPKTLIHRANRLVDGVPSRFSGSGSGQDYSLTISSLEYEDIGIYYCLQYDEFPYTFGGGTKLEIKR"

# Molecular target: T1, Tyrosine-protein kinase transmembrane …
# Experiment: flow cytometry, legend of FIGS. 5a and 5b (members and cell lines per antibody named in paragraph 474)
# Description: as §1
row,binding result,Binder
1,binds,"ROR1_A10 (Fab, V domains shown, The entries are called 'variable region' but as printed hold leader, V domain, constant domain and tag) VH: EVQLVETGGGLVKPGGSLKLSCAASGFAFSSYAMSWVRQTPEKRLEWVAAINNRGGGTYYPDTVRGRFTISRDNAKNTLYLQMSSLRSADTALYYCVRHDNLNYDYAMDSWGQGTSVTVSS VL: NIVMTQSPSSMYASLGERVTITCKASQDIYSYLSWFQQKPGKSPKTLIYRANRLVDGVPSRFSGSGSGQDYSLTISSLDYEDVGIYYCLQYDEFPYTFGSGTKLEIER"
2,binds,"ROR1_A1 (Fab, V domains shown) VH: EVKLVESGGGLVRPGGSLKLSCAVSGFTFSSYAMSWVRQTPEKRLEWVAAINFNRGTTYYSDTVKGRFTISRDNAKNTLYLQLSSLRSEDTAFYYCSRHRYSDYDYAMDYWGQGTSVTVSS VL: DIVMSQSPSSMYASLGERVTITCKASQDINSYLNWFQQKPGKSPKTLIYRANRLVDGVPSRFSGSGSGHDYFLTIRSLEYEDMGIYYCLQYDEFPYTFGGGTKLEIKR"
3,binds,"ROR1_A13 (Fab, V domains shown, The entries are called 'variable region' but as printed hold leader, V domain, constant domain and tag) VH: EVQLVETGGGLVKPGGSLKLSCAASGFTFSSYAMSWIRQTPEKRLEWVAGINSNRGTTYYPDTVKGRFTISRDNAKNTLYLQMNSLRSEDSALYYCVRHRYIDYDYAMDYWGQGTSVTVSS VL: NIVMTQSPSSMYASLGERVTIICKSSQDINSYLSWFQQKPGKSPKTLIFRANRLVDGVPSRFSGSGSGQDYSLTISSLEYEDMGIYYCLQYDEFPYTFGGGTKLEVKR"
4,binds,"ROR1_A12 (Fab, V domains shown, The entries are called 'variable region' but as printed hold leader, V domain, constant domain and tag) VH: EVQLVESGGGLVKPGGSLKLSCAASGFTFSSYAMSWVRQTPEKRLEWVAAINSNRGTTYYSDTVKGRFTISRDNAKNTLYLQMSSLRSEDTAFYYCTRHRYSDYDYAMDYWGQGTSVTVSS VL: DIKMTQSPSSMYASLGERVTITCKASQDINSYLSWFQQKPGKSPMTLTHRANRLVDGVPSRFSGSGSGQDYSLTISSLENEDMGIYYCLQYDEFPYTFGGGTKLEIKR"
5,binds,"ROR1_A14 (Fab, V domains shown, The entries are called 'variable region' but as printed hold leader, V domain, constant domain and tag) VH: QVQLKQSGAELVKPGASVKISCKATGYTFSSYWIEWVKERPGHGLEWIGEILPGIGNTNYNEKFKGKATFTADLSSKTAYMQLSSLTSEDSAVYYCASGGYSTVYWYFDVWGAGTTVTVSS VL: DVVMSQSPSSLAVSTGEKVTLSCKSSQSLLNSRTRKNYLAWYQQKPGQSPKLLIYWTSTRESGVPNRFTGSGSGTDFTLTISSVQAEDLAVYYCKQSYDLPWTFGGGTKLEIKR"
